The supplement of paper PMC9170038

Tested on: MS2 coat protein
Assay: apparent KD of MS2 coat protein; designed switch direction (-1 OFF switch, 1 ON switch): -1; higher = weaker reporter binding
In short: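 For each design, the apparent KD is the median over clusters of curves fitted to normalised cluster fluorescence. Clusters held RNA switches with common flanks, transcribed on Illumina chips by stalled E. coli RNA polymerase. These were titrated with SNAP-549-labelled MS2 coat protein, doubling from 0.7 or 1.5 nM to 3 µM, without input, with 200 uM small-molecule ligand, or with an oligonucleotide input.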

[1] = input ligand: microRNA oligo, concentration not stated

Row | Sequence | apparent KD of MS2 coat protein (Eterna round: R95, input ligand: microRNA oligo, concentration not stated) [nM] | apparent KD of MS2 coat protein (input ligand: FMN 200 uM) [nM] | apparent KD of MS2 coat protein (input ligand: none) [nM] | apparent KD of MS2 coat protein [1] [nM]
1 | UAAUUAAGUGUGAGGAUAUGCUGGUCCUUGGAUCAGCAGAAGGCACAUGAGGAUCACCCAUGUAAUUUAUUUAU [JL bmx4 3.10] (puzzle: Brourd's mod of Exclusion 4) | 78.5 |  |  | 
2 | UACAAGCUUUUAAGAUCCUACAUGAGGAUCACCCAUGUGCUCGUCUUGUAACGUACUGUGACGAAAGUCACGGUACG [JL TOV1 3.22] (Eterna round: R97, puzzle: Sensor, turn-off variant 1) |  | 206 | 220 | 
3 | UACAAUGCUUUUGUAAGGUACAUGAGGAUCACCCAUGUCUCGCAAAGGCUUGAUUAUCACGUACGCGCUUGUCUUGU [Eternabot (L1) Solution 17] (Eterna round: R97, puzzle: Sensor, turn-off variant 1) |  | 14.3 | 12.2 | 
4 | UACACUGCAUGAGGAUCAAACAUGAGGAUCACCCAUGUAUAGCAGGCUUUUUGUACGUCUUAUAAUUAUGUAGUGUA [Electric Eye 16 - Jieux - Sensor, turn-off variant 1] (Eterna round: R97, puzzle: Sensor, turn-off variant 1) |  | 15.9 |  | 
5 | UACACUGCAUGAGGAUCAAACAUGAGGAUCACCCAUGUAUAGCAGGCUUUUUGUGCGUCUUAUAAUUAUGUAGUGUA [Electric Eye 18 - Jieux - Sensor, turn-off variant 1] (Eterna round: R97, puzzle: Sensor, turn-off variant 1) |  | 14.9 | 15.3 | 
6 | UACAUACGUCGAUCGAAAGACAUGAGGAUCACCCAUGUACGAUGUCAACGUCAAAUCCAAGUAUUUUGCUCUCGUCA [Eternabot (L2) Solution 32] (Eterna round: R97, puzzle: Sensor, turn-off variant 1) |  | 15.6 | 16.1 | 
7 | UACAUGAGGAUCACCCAUGUCUUUUCGUGUAUGGUACCCAUCUAGGAUAUCGUGUUAUUUAACCACGAGAAGGAGAGUAUCAAU [MOD5 Solution 21 by JMF] (Eterna round: R96, puzzle: Exclusion NG 3) |  | 65.6 | 66.5 | 55.9
8 | UACAUGAGGAUCACCCAUGUUUUGUCGUGUAUGGUAUUUAUCUAGGAUAUCAAGUUAUUUAAUUAUGAGAAGGAGAAUAUUAAU [JMF's solution 34] (Eterna round: R96, puzzle: Exclusion NG 3) |  | 32.8 | 34.5 | 26.6
9 | UACAUGAGGAUCACCCAUGUUUUGUCGUGUAUGGUAUUUAUCUAGGAUAUCAAGUUGUUUAUUUAUGAGAAGGAGAAUAUUAAU [JMF's solution 27] (Eterna round: R96, puzzle: Exclusion NG 3) |  |  |  | 28.8
10 | UACAUGAGGAUCACCCAUGUUUUGUCGUGUAUGGUAUUUAUCUAGGAUAUCAAUCUAUUUAUUUAUGAGAAGGAGAAUAUUAAU [JMF's solution 13] (Eterna round: R96, puzzle: Exclusion NG 3) |  | 39.6 | 42.3 | 25.7
11 | UACAUGAGGAUCACCCAUGUUUUGUCGUGUAUGGUAUUUAUCUAGGAUAUCAAUUGAUUUAUUUAUGAGAAGGAGAAUAUUAAU [JMF's solution 15] (Eterna round: R96, puzzle: Exclusion NG 3) |  | 42.5 | 39.5 | 26.8
12 | UACAUGAGGAUCACCCAUGUUUUGUCGUGUAUGGUAUUUAUCUAGGAUAUCAAUUUAGUCAUUUAUGAGAAGGAGAAUAUUAAU [JMF's solution 74] (Eterna round: R96, puzzle: Exclusion NG 3) |  | 35.5 | 38.4 | 28.6
13 | UACAUGAGGAUCACCCAUGUUUUGUCGUGUAUGGUAUUUAUCUAGGAUAUCAAUUUGUUUAAUUAUGAGAAGGAGAAUAUUAAU [JMF's solution 70] (Eterna round: R96, puzzle: Exclusion NG 3) |  | 34.3 | 35.6 | 25.8
14 | UACAUGAGGAUCACCCAUGUUUUGUCGUGUAUGGUAUUUAUCUAGGAUAUCAUUCUAUUUAGUUAUGAGAAGGAGAAUAUUAAU [JMF's solution 84] (Eterna round: R96, puzzle: Exclusion NG 3) |  |  |  | 21.1
15 | UACAUGAGGAUCACCCAUGUUUUGUCGUGUAUGGUAUUUAUCUAGGAUAUCAUUUUAUUAAGUUAUGAGAAGGAGAAUAUUAAU [JMF's solution 90] (Eterna round: R96, puzzle: Exclusion NG 3) |  | 34.8 | 32.3 | 24.9
16 | UACAUGAGGAUCACCCAUGUUUUGUCGUGUAUGGUAUUUAUCUAGGAUAUCAUUUUAUUGAGUUAUGAGAAGGAGAAUAUUAAU [JMF's solution 91] (Eterna round: R96, puzzle: Exclusion NG 3) |  | 39.8 | 32.3 | 28.5
